Assay results as given in paper PMC2193935 (The Journal of Experimental Medicine, 2002).

Molecular target: the molecule itself
Assay: SDS-PAGE under non-reducing and reducing conditions with Western blot

B1: Epo-Fc/IHH (Epo-Fc with three inactivating point mutations in the FcRn-binding site of the Fc domain) (Fc fusion)
chain: APPRLICDSRVLERYILEAKEAENVTMGCAEGPRLSENITVPDTKVNFYAWKRMEVEEQAIEVWQGLSLLSEAILQAQALLANSSQPPETLQLHIDKAISGLRSLTSLLRVLGAQKELMSPPDTTPPAPLRTLTVDTFCKLFRVYANFLRGKLKLYTGEVCRRGDRGGSGGSVPRDCGCKPCICTVPEVSSVFIFPPKPKDVLTATLTPKVTCVVVDISKDDPEVQFSWFVDDVEVHTAQTQPREEQFNSTFRSVSELPIMAQDWLNGKEFKCRVNSAAFPAPIEKTISKTKGRPKAPQVYTIPPPKEQMAKDKVSLTCMITDFFPEDITVEWQWNGQPAENYKNTQPIMNTNGSYFVYSKLNVQKSNWEAGNTFTCSVLHEGLHNAHTEKSLSHSPGK
modifications: glycosylated (oligosaccharides cleaved by PNGase F)
With B1 the “stoichiometry N” value was 2.
